Measurements from article PMC11189929, “Non-consecutive enzyme interactions within TCA cycle supramolecular assembly regulate carbon-nitrogen metabolism” (Nature Communications, 2024).
Each block holds one molecule with its values, some of them ahead of it.

Assays:
[1] = biological target: T1, Escherichia coli MDH (Escherichia coli, UniProt P61889); set-up: Purified MDH activity, NADH oxidation at 340 nm with varied oxaloacetate, 150 uM NADH, pH 7.4, Michaelis-Menten fit; details: substrate; read-out: KM (oxaloacetate)
T1 construct: C-terminal His6 tag, pET24a, expressed in E. coli BL21(DE3)
T1 sequence (P61889 1-312): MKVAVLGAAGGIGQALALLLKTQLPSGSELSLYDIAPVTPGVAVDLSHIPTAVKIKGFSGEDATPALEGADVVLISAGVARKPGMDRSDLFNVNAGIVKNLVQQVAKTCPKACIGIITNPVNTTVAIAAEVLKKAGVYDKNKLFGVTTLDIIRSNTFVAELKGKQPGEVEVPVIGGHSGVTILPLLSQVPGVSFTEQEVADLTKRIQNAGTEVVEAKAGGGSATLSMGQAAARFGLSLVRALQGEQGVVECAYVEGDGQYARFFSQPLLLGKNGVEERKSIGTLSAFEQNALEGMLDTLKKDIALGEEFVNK
Experimental: (§1) Determination of MDH activity was based on spectroscopic assays (30). […] Specifically, a range of oxaloacetate (Sigma) concentrations (7.5–250 µM), 150 µM NADH (Sigma), 5 nM MDH in 0.1 M sodium phosphate buffer, pH 7.4 were used. […] The catalytic parameters, kcat and KM, were calculated by fitting the data using non-linear regression to Michaelis-Menten equation, v0 = (kcat·[E]·[S])/(KM + [S]), where v0 is initial velocity, [E] is MDH concentration, [S] is […]. Original and mutated mdh genes used in the study are summarized in Supplementary Data 1. B. subtilis mdh gene was amplified by PCR from the chromosomal DNA of B. subtilis PY79. Nucleotide sequences of orthologous mdhs were collected from the KEGG database (https://www.genome.jp/), synthesized by GENEWIZ^© and cloned into i) pHT254 B. subtilis expression vector (MoBiTec Molecular Biotechnology), and ii) pET24a E. coli expression vector (Merck-Novagen) using Gibson assembly. […] All MDH proteins were tagged with Hisx6t at the C-terminal end. Mdh genes cloned into pHT254 plasmid were transformed into B. subtilis PY79. Mdh genes cloned into pET24a plasmid were transformed into E. coli Bl21(DE3) strain.

[2] = substrate: O=C(O)CC(=O)C(=O)O; assay: purified protein; format: biochemical, Bacillus subtilis; details: 150 uM NADH, oxaloacetate 7.5-250 uM, 5 nM MDH, 0.1 M sodium phosphate pH 7.4
[3] = substrate: O=C(O)CC(=O)C(=O)O; assay: purified protein, by the assay type; set-up: Purified MDH activity, NADH oxidation at 340 nm with varied oxaloacetate, 150 uM NADH, pH 7.4, Michaelis-Menten fit; details: pH 7.4
Experimental: as §1

[4] = substrate: O=C(O)CC(=O)C(=O)O; assay: purified protein; format: biochemical, Oceanobacillus iheyensis; details: 150 uM NADH, oxaloacetate 7.5-250 uM, 5 nM MDH, 0.1 M sodium phosphate pH 7.4
[5] = biological target: T2, isocitrate dehydrogenase (ICD) from Bacillus subtilis (B. subtilis) (UniProt P39126)
T2 sequence: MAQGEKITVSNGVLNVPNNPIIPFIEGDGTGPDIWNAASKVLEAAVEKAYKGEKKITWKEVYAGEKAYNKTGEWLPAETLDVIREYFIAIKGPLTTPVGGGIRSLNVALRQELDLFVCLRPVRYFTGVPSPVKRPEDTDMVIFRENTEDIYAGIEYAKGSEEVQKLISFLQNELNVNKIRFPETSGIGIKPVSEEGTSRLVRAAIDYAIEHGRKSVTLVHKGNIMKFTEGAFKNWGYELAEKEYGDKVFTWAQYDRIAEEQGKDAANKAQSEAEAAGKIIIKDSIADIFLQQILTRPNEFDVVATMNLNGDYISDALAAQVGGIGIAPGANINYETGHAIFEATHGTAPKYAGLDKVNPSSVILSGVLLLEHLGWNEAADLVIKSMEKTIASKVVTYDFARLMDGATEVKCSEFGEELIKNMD

[6] = biological target: T2, isocitrate dehydrogenase (ICD) from Bacillus subtilis (B. subtilis); remark: listed apart in the source

Km [1]: 39 µM
Molecule: O=C(O)CC(=O)C(=O)O [oxaloacetate]

B1: B. subtilis MDH (BsMDH) (Bacillus subtilis subsp. subtilis str. 168) (protein)
chain: GNTRKKVSVIGAGFTGATTAFLIAQKELADVVLVDIPQLENPTKGKALDMLEASPVQGFDAKITGTSNYEDTAGSDIVVITAGIARKPGMSRDDLVSTNEKIMRSVTQEIVKYSPDSIIVVLTNPVDAMTYAVYKESGFPKERVIGQSGVLDTARFRTFVAEELNLSVKDVTGFVLGGHGDDMVPLVRYSYAGGIPLETLIPKERIDAIVERTRKGGGEIVNLLGNGSAYYAPAASLTEMVEAILKDQRRVLPTIAYLEGEYGYEGIYLGVPTIVGGNGLEQIIELELTDYERAQLNKSVESVKNVMKVLS
notes: full-length, C-terminal His6 tag, pET24a, expressed in E. coli BL21(DE3), Ni-NTA and SEC; 33,643 Da printed
Km [2]: 12 µM | kcat [2]: 120 s⁻¹

B2: Geobacillus kaustophilus MDH (Geobacillus kaustophilus HTA426) (protein)
chain: MAMKRKKISVIGAGFTGATTAFLLAQKELGDVVLVDIPQLENPTKGKALDMLEASPVLGFDANIIGTSDYADTADSDIVVITAGIARKPGMSRDDLVTTNQKIMKQVTKEVVKYSPNCYIIVLTNPVDAMTYTVFQESGFPKNRVIGQSGVLDTARFRTFVAEELNISVKDVTGFVLGGHGDDMVPLVRYSYAGGIPLEKLIPKDRLDAIVERTRKGGGEIVNLLGNGSAYYAPAASLVEMVEAILKDQRRILPAIAYLEGEYGYEGIYLGVPTILGGNGIEKVIELELTEEEKAALAKSVESVKNVMRMLE
notes: C-terminal His6 tag, pET24a, expressed in E. coli BL21(DE3)
Km [3]: 54 µM | kcat [3]: 59 s⁻¹ | kcat/Km [3]: 1.1e+06 M⁻¹ s⁻¹

B3: O. iheyensis MDH (OceMDH) (Oceanobacillus iheyensis HTE831) (protein)
chain: MGLKRKKISVIGSGFTGATTALMVAQKELGDVVLVDIPDMEDPTKGKALDMAEAAPVQGFDAKITGTSNYADTEGSDLVIITAGIARKPGMSRDDLVNTNANIMKSVTKEIVHYSPNTTIVVLTNPVDAMTYTVFKESGLPKERVIGQSGILDTARFRTFVAEELNLSVKDVTGFVLGGHGDDMVPLIRYSYAGGIPLEKLIPQERLDAIVQRTRTGGGEIVNLLGNGSAYYAPAASLTVMAEAILKDQRRVLPTIAYLEGEYGYQDIYLGVPTILGGEGIEEIIELDLTKEEKAQLDKSADSVKNVLNVLQ
notes: 34,592 Da printed
Km [4]: 23 µM | kcat [4]: 249 s⁻¹

partitioning of 2-oxoglutarate towards the droplet phase against the continuous phase, droplets with 1:500 molar excess of MDH, after 40 min of incubation [5]: 2 fold | rate of 2-oxoglutarate formation by ICD within BSA/PEG LLPS droplets, MDH/ICD molar ratios 1:1, 10:1, 50:1, 100:1, 250:1 and 500:1 (~10% enhancement at 10:1; plateau at and above 250:1) [6]: 180%
B4: malate dehydrogenase (MDH) from Bacillus subtilis (enzyme)
chain: MGNTRKKVSVIGAGFTGATTAFLIAQKELADVVLVDIPQLENPTKGKALDMLEASPVQGFDAKITGTSNYEDTAGSDIVVITAGIARKPGMSRDDLVSTNEKIMRSVTQEIVKYSPDSIIVVLTNPVDAMTYAVYKESGFPKERVIGQSGVLDTARFRTFVAEELNLSVKDVTGFVLGGHGDDMVPLVRYSYAGGIPLETLIPKERIDAIVERTRKGGGEIVNLLGNGSAYYAPAASLTEMVEAILKDQRRVLPTIAYLEGEYGYEGIYLGVPTIVGGNGLEQIIELELTDYERAQLNKSVESVKNVMKVLS
